Values quoted from earlier work as cited in publication PMC7948479, “Allostery in the nitric oxide dioxygenase mechanism of flavohemoglobin” (The Journal of Biological Chemistry, 2020).

Test system: flavoHb
Design: method as in PMID 22948361
Settings: cited from earlier work

B1: WT: wild-type E. coli flavohemoglobin (flavoHb), an NO dioxygenase (NOD) (protein, UniProt P24232 1-396, looked up)
Flavohemoprotein: MLDAQTIATVKATIPLLVETGPKLTAHFYDRMFTHNPELKEIFNMSNQRNGDQREALFNAIAAYASNIENLPALLPAVEKIAQKHTSFQIKPEQYNIVGEHLLATLDEMFSPGQEVLDAWGKAYGVLANVFINREAEIYNENASKAGGWEGTRDFRIVAKTPRSALITSFELEPVDGGAVAEYRPGQYLGVWLKPEGFPHQEIRQYSLTRKPDGKGYRIAVKREEGGQVSNWLHNHANVGDVVKLVAPAGDFFMAVADDTPVTLISAGVGQTPMLAMLDTLAKAGHTAQVNWFHAAENGDVHAFADEVKELGQSLPRFTAHTWYRQPSEADRAKGQFDSEGLMDLSKLEGAFSDPTMQFYLCGPVGFMQFTAKQLVDLGVKQENIHYECFGPHKVL
  kET by time-resolved pulse radiolysis: 6800 s⁻¹
